Test results: US11390894B2, “Biological processes for the production of aryl sulfates” (CysBio ApS, priority 2014, dated 2022)
Where a chain is given by its changes, count along the chain named.

Assays:
Type in all cases: cell-based, Escherichia coli
[1] = system: kaempferol; assay: Percent conversion of substrate by E. coli cells expressing sulfotransferases; conditions: 87 μM kaempferol, M9 medium, overnight 37° C.
Experimental: (§1) The concentration of p-courmaric acid (pHCA) and zosteric acid in the supernatant was quantified by high performance (HPLC) and compared to chemical standards. HPLC was done on a Thermo setup using a HS-F5 column and mobile phases: 5 mM ammonium formate pH 4.0 (A) and acetonitrile (B) at 1.5 mL min-1, using a gradient elution starting at 5% B. From 0.5 min after injection to 7 min, the fraction of B increased linearly from 5% to 60%, and between 9.5 min and 9.6 the fraction of B decreased back to 5%, and remaining there until 12 min. pHCA and zosteric acid were quantified by measuring absorbance at 277 nm.
(§2) Different sulfotransferases were examined for their substrate specificities against three substrates. We tested the sulfotransferases mentioned in example 1, as well as additional ones. The genes encoding these were cloned as described in example 1 using the primers shown in the table below from cDNA libraries of the respective organisms, except for the SULT1A1 from rat (Rattus norvegicus) codon-optimized for E. coli (described above). The resulting vectors were transformed into BL21(DE3)pLysS.
(§3) The resulting strains were grown in M9 medium containing either 100 μM pHCA, 95 μM resveratrol or 87 M kaempferol. The cultures were grown overnight at 37° C., 300 rpm. The following day the supernatants were isolated and examined by HPLC as described in example 1.

[2] = system: resveratrol; assay: as above; conditions: 95 μM resveratrol, M9 medium, overnight 37° C.
Experimental: as §1, §2, §3

[3] = system: pHCA; assay: as above; conditions: 100 μM pHCA, M9 medium, overnight 37° C.
Experimental: as §1, §2, §3

[4] = system: pHCA; assay: Production of zosteric acid in E. coli from pHCA through heterologous expression of sulfotransferases; conditions: culture media; M9 glucose, 0.1 mM IPTG, 0.1 mM pHCA, four days of growth
Excerpt: A range of aryl sulfotransferases including SULT1A1 Rattus norvegicus (SEQ ID NO: 1), SULT1A1 Homo sapiens (SEQ ID NO: 2), SULT1A1 Equus caballus (SEQ ID NO: 3), SULT1A1 Sus scrofa domesticus (SEQ ID NO: 4), SULT1A1 Canis lupus familiaris (SEQ ID NO: 5) and SULT1E1 Gallus gallus domesticus (SEQ ID NO: 6) were expressed in Escherichia coli. […]. The nucleotide sequence of the gene encoding SEQ ID NO: 2 was codon optimized for expression in Escherichia coli (GeneArt, Life Technologies) and amplified by PCR using the primers in Table 1. The pETDuet-1 plasmid was digested with restriction endonucleases Ncol and Sal. The PCR products were then individually cloned into the plasmid pETDuet-1 using the Gibson reaction (New England Biolabs). The resulting plasmids were transformed into BL21(DE3)pLysS (Life Technologies).
(§4) The strains were grown in M9 minimal media containing glucose as a carbon source, and 0.1 mM IPTG for induction of gene expression as well as 0.1 mM p-coumaric acid (pHCA). After four days of growth, samples were withdrawn by filtration and analyzed by HPLC.
as §1
Zosteric acid was formed with an aryl sulfotransferase heterologously expressed in a microorganism exemplified by E. coli supplied with the substrate.

[5] = system: pHCA; assay: Zosteric acid production in E. coli expressing an aryl sulfotransferase in combination with cysDNC and cysQ; conditions: grown as in Example 1 (0.1 mM pHCA)
Experimental: as §4, §1
The plasmid pRSFDuet-1 (Life Technologies) was digested by the restriction endonucleases NdeI and BgIII. The gene cluster was inserted into the digested plasmid using the Gibson reaction (New England Biolabs). […] For the combined expression of cysDNC and cysQ in an artificial operon, cysDNCQ, the two parts were amplified by PCR from E. coli MG1655 chromosomal DNA using the primers shown in Table 3. Again the parts were inserted into the digested plasmid. […] The plasmid expressing SULT1A1 Homo sapiens (SEQ ID NO: 2) from example 1 was co-transformed into E. coli BL21(DE3)pLysS cells (Life Technologies) with either the plasmid expressing cysDNC or cysDNCQ.
Cells were grown as in Example 1 and the supernatants were analyzed for product formation as in example 1. The strain expressing SULT1A1 in combination with cysDNCQ was also grown without the addition of IPTIG for induction.

B1: SULT1A1 Equus caballus: aryl sulfotransferase SULT1A1 Equus caballus (SEQ ID NO: 3) (protein, listed as Equus caballus)
chain: MELIQDTSRPPLKYVKGVPLIKYFAEALGPLQSFQARPDDLLISTYPKSGTTWVSEILDMIYHGGDLEKCRRAPIFIRVPFLEFKAPEIPSGVEVLKDTPAPRLLKTHLPLSLLPQTLLDQKVKVVYLARNAKDVAVSYYHFYRMAKVHPDPGTWDSFLEKFMAGEVSYGSWYKHVQEWWELSHTHPVLYLFYEDMKENPKKEIQKILEFVGRSLPEETLDRIVQHTSFKEMKKNPMANYSTIPCDIMDHNISAFMRKGIAGDWKNTFTVAQNEHFDTDYAEKMAGCKLSFRSEV
- percent conversion of kaempferol [1]: 96%
- percent conversion of resveratrol [2]: 100%
- percent conversion of pHCA [3]: 21%
- Zosteric acid formed [4]: 0.01 mM
- pHCA remaining [4]: 0.09 mM

B2: SULT1A1 Canis lupus familiaris: aryl sulfotransferase SULT1A1 Canis lupus familiaris (SEQ ID NO: 5) (protein, listed as Canis lupus)
chain: MEDIPDTSRPPLKYVKGIPLIKYFAEALESLQDFQAQPDDLLISTYPKSGTTWVSEILDMIYQDGDVEKCRRAPVFIRVPFLEFKAPGIPTGLEVLKDTPAPRLIKTHLPLALLPQTLLDQKVKVVYVARNAKDVAVSYYHFYRMAKVHPDPDTWDSFLEKFMAGEVSYGSWYQHVQEWWELSHTHPVLYLFYEDMKENPKREIQKILKFVGRSLPEETVDLIVQHTSFKEMKNNSMANYTTLSPDIMDHSISAFMRKGISGDWKTTFTVAQNERFDADYAKKMEGCGLSFRTQL
- percent conversion of kaempferol [1]: 60%
- percent conversion of resveratrol [2]: 61%
- percent conversion of pHCA [3]: 34%
- Zosteric acid formed [4]: 0.01 mM
- pHCA remaining [4]: 0.10 mM

B3: SULT1E1 Gallus gallus domesticus: aryl sulfotransferase SULT1E1 Gallus gallus domesticus (SEQ ID NO: 6) (protein, listed as Gallus gallus)
chain: MGNDEVIRQDLGCLYDIPLYKCFVAGWPQVEAFQARPDDLLIATYPKSGTTWLSEILDAIYHDGDLEKCRRDAIYNRVPFLEMKAPGILSGVEQLEKIPSPRLVKTHLPVHLLPASFQEKDCKVIYMARNAKDVVISYYYFYQMAKIHPDPGTLSEFLQAFMDGKVAYGSWYKHVKGWWEKRHEKRLLYLFYEDMKKDPRREIQKILQFLGKEVAEETVARILHHTSFQEMKKNPATNYETMPTELMDHSLSPFMRKGISGDWANHFTVAQNERFDQHYQQQMAGSDLCFQMEA
- percent conversion of kaempferol [1]: 47%
- percent conversion of resveratrol [2]: 100%
- percent conversion of pHCA [3]: 17%
- Zosteric acid formed [4]: 0.01 mM
- pHCA remaining [4]: 0.08 mM

B4: SULT1A1 Sus scrofa domesticus: aryl sulfotransferase SULT1A1 Sus scrofa domesticus (SEQ ID NO: 4) (protein, listed as Sus scrofa)
chain: MEPVQDTYRPPLEYVKGVPLIKYFAEALGPLESFQAWPDDVLISTYPKSGTTWVSEILDLIYQGGDLQKCQRAPIFVRVPFLEFKIPGCPTGFELLKDTPAPRLLKTHLPLALLPQTLLDQKVKVVYVARNAKDVAVSYYHFYRMAKVHPNPGTWDSFLEDFMAGEVSYGSWYQHVQEWWELRHTHPVLYLFYEDMKENPKREIQKILEFVGRSLPEETVEDIVQHTSFQEMKNNAMTNYRTLPSDLLDHSISAFMRKGITGDWKSTFTVAQNERFEADYAEKMAGCNLRFRSEL
- percent conversion of kaempferol [1]: 45%
- percent conversion of resveratrol [2]: 88%
- percent conversion of pHCA [3]: 8%
- Zosteric acid formed [4]: 0.01 mM
- pHCA remaining [4]: 0.09 mM

B5: SULT1A1 Homo sapiens: aryl sulfotransferase SULT1A1 Homo sapiens (SEQ ID NO: 2) (protein, listed as Homo sapiens)
chain: MELIQDTSRPPLEYVKGVPLIKYFAEALGPLQSFQARPDDLLISTYPKSGTTWVSQILDMIYQGGDLEKCHRAPIFMRVPFLEFKAPGIPSGMETLKDTPAPRLLKTHLPLALLPQTLLDQKVKVVYVARNAKDVAVSYYHFYHMAKVHPEPGTWDSFLEKFMVGEVSYGSWYQHVQEWWELSRTHPVLYLFYEDMKENPKREIQKILEFVGRSLPEETVDFMVQHTSFKEMKKNPMTNYTTVPQEFMDHSISPFMRKGMAGDWKTTFTVAQNERFDADYAEKMAGCSLSFRSEL
- percent conversion of kaempferol [1]: 97%
- percent conversion of resveratrol [2]: 36%
- percent conversion of pHCA [3]: 39%
- Zosteric acid formed ([5]; induction 0.1 mM IPTG): 0.02 mM
- pHCA remaining ([5]; induction 0.1 mM IPTG): 0.08 mM
- Zosteric acid formed [4]: 0.02 mM
- pHCA remaining [4]: 0.08 mM

B6: SULT1A1 Homo sapiens, CysDNC: SULT1A1 Homo sapiens co-expressed with E. coli cysDNC (ATP sulfurylase and APS kinase) (protein, UniProt P50225 1-295, looked up)
Sulfotransferase 1A1: B5 chain with M223V
modifications: co-expressed with E. coli cysDNC
- Zosteric acid formed ([5]; induction 0.1 mM IPTG): 0.06 mM
- pHCA remaining ([5]; induction 0.1 mM IPTG): 0.06 mM

B7: SULT1A1 Homo sapiens, CysDNCQ: SULT1A1 Homo sapiens co-expressed with E. coli artificial operon cysDNCQ (plus PAP phosphatase cysQ) (protein, UniProt P50225 1-295, looked up)
Sulfotransferase 1A1: B5 chain with M223V
modifications: co-expressed with E. coli cysDNCQ
- Zosteric acid formed ([5]; induction 0.1 mM IPTG): 0.09 mM
- pHCA remaining ([5]; induction 0.1 mM IPTG): 0.04 mM
- pHCA remaining ([5]; induction None): 0.10 mM
